The results in this text go back to patent US20240352445A1 (ABWIZ BIO, published 2024).

Where a chain is given by its changes, count along the chain named.

Sequences and labels used below:
B1: SEQ ID NO 12 (antibody, V domains shown)
VH: EVQLVESGGGLVQPGGSLRLSCTVSGFSLSTYAMSWVRQAPGKGLEWIGVIASNADTYYASWAKGRFTISRDNSKNTLYLQMNSLRAEDTAVYYCARHPGSAGYGYAVYYAMDPWGQGTLVTVSS
VL: DIQMTQSPSSLSASVGDRVTITCQASQPIHYAINWYQQKPGKAPKLLIYGTSHRKMGVPSRFSGSGSGTDYTLTISSLQPEDFATYYCQQGYIVALKFGGGTKVEIK
notes: also called selected clone from LxC libraries; LxC clone
B2: SEQ ID NO 18 (antibody, V domains shown)
VH: B1 VH
VL: DIQMTQSPSSLSASVGDRVTITCKASEDIRYGLNWYQQKPGKAPKLLIYGGSYLRWGVPSRFSGSGSGTDYTLTISSLQPEDFATYYCQQGYRVPIRFGGGTKVEIK
notes: As m4; also called selected clone from LxC libraries; LxC clone
B3: SEQ ID NO 16 (antibody, V domains shown)
VH: B1 VH
VL: B1 VL with P28D, I29V, H30K, H53S, K55G, M56E, I93V, A95S, L96I, K97F
notes: As m4
B4: SEQ ID NO 15 (antibody, V domains shown)
VH: B1 VH
VL: B1 VL with P28K, H53Y, R54L, K55G, M56G, Y71F, A95P, L96N, K97S
notes: As m4
B5: SEQ ID NO 17 (antibody, V domains shown)
VH: B1 VH
VL: DIQMTQSPSSLSASVGDRVTITCQASQPIYYGINWYQQKPGKAPKLLIYGHTYRAWGVPSRFSGSGSGTDFTLTISSLQPEDFATYYCQQGYRVGLGFGGGTKVEIK
notes: As m4

For this assay, the target named is SARS-CoV-2 spike protein trimer, wild type (SARS-CoV-2, UniProt P0DTC2 16-1213). As to the kind of experiment: ELISA, purified IgG.
Take B1: the binding result is on record as “binds”.

Consider B2, for which the binding result is “binds”. For B3, the binding result is “binds”. For B4 the value was “binds”; for B5, “binds”.
